Patent US20240002500A1 (GUANGDONG FAPON BIOPHARMA, published 2024)

Legend:
hTIGIT-hFc [1] = target: T1, hTIGIT-hFc (human, UniProt Q495A1 22-141); assay: FACS blocking: hTIGIT-hFc bound on U2-OS cells (PVR and CD112), then antibody, APC anti-human IgG Fc; first row of the table, row head not printed (fits the midpoint of the Tigit-5 curve; like table in Fig. 6A); unit from the x axis Log[µg/mL]
T1 construct: also called antigen protein hTIGIT-hFc; human TIGIT recombinant protein carrying a human Fc tag; not shown: human Fc tag
T1 sequence (looked up): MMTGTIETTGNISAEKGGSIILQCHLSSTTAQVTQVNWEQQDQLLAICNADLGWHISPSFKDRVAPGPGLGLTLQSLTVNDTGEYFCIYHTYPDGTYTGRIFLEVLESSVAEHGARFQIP
Procedure: (§1) U2-OS cells to be detected (human osteosarcoma cells, naturally and highly expressing PVR and CD112 by means of detection) were counted; centrifugated at 300 g for 5 min; resuspended with an FCM buffer; and cell density was adjusted to 4E+06 cell/mL for later use. […] According to an experimental design, in each well, 50 μL of the antigen protein and 50 μL of the cell (the volume of each cell added into a 96-well V-shaped plate being 2E+05 cell/well) were respectively added in the 96-well V-shaped plate; and incubation was performed in dark on ice for 30 min. Centrifugation (300 g/5 min) was performed; supernatant was discarded; 200 μL of the FCM buffer was added for washing once; centrifugation (300 g/5 min) was performed; and the supernatant was discarded. The antibody was added to the 96-well V-shaped plate (in 100 μL/well); and incubation was performed in dark on ice for 30 min. Centrifugation (300 g/5 min) was performed; supernatant was discarded; 200 μL of the FCM buffer was added for washing once; centrifugation (300 g/5 min) was performed; and the supernatant was discarded. Secondary antibodies (APC anti-human IgG Fc, 1:500 dilution) were added to the 96-well V-shaped plate (in 100 μL/well); and incubation was performed in dark on ice for 30 min. […]

hTIGIT-hFc [2] = target: T1, hTIGIT-hFc; assay: FACS blocking: hTIGIT-hFc bound on U2-OS cells (PVR and CD112), then antibody, APC anti-human IgG Fc
Procedure: as §1

hTIGIT-hFc [3] = target: T1, hTIGIT-hFc; assay: FACS blocking: antibody preincubated with hTIGIT-hFc, then CHO-hPVR cells; unit as printed on the axis, Log(uM); the same range is labelled nM in Fig. 4A and the method's top concentration of 40 µg/mL fits nM
Procedure: The CHO-engineered cells CHO-hPVR cells recombinantly expressing full-length human PVR were counted centrifugated at 300 g for 5 min, resuspended with an FCM buffer, the cells were added to the 96-well V-shaped plate; the volume of each cell added into a 96-well V-shaped plate was 2E+05 cell/well (being added in 50 μL/well); and incubation was performed in dark on ice for 30 min. Centrifugation (300 g/5 min) was performed; supernatant was discarded; 200 μL of the FCM buffer was added for washing once; centrifugation (300 g/5 min) was performed; and the supernatant was discarded. Secondary antibodies (PE anti-human IgG Fc, 1:500 dilution) were added to the 96-well V-shaped plate (in 100 μL/well); and incubation was performed in dark on ice for 30 min. Centrifugation (300 g/5 min) was performed; supernatant was discarded; 200 μL of the FCM buffer was added for washing once; centrifugation (300 g/5 min) was performed; and the supernatant was discarded. 100 μL of the 1×PBS was added for resuspending, and on-machine detection was performed.

hTIGIT-hFc [4] = target: T1, hTIGIT-hFc; assay: FACS blocking: hTIGIT-hFc bound on CHO-hCD112 cells, then antibody, APC anti-human IgG Fc; blocked partner CD112; unit as printed on the x axis, Log(uM); the method's top concentration of 20 µg/mL and the nM values of Fig. 5B speak for nM
Procedure: as §1, with “The CHO-engineered cell CHO-hCD112” for “U2-OS”, “recombinantly” for “to be detected (human osteosarcoma cells, naturally and highly”, “full-length human” for “PVR and”, “CD112” for “CD112 by means of detection)”

B1: Tigit-5 mouse monoclonal antibody (antibody, V domains shown)
VH: QVQLQQPGAELVRPGASVKLSCKASGYSFTSYWMNWVKQRPGQGLEWIGMIRPSDSETRLNQMFKDKATLTVDKSSSTAYMQLSSPTSDDSAVYYCAGIHDYGHGAYWGQGTLVTVSA
VL: DIQMIQSPASLSVSVGETVTITCRASENIYSNLAWYQQKQGKSPQLLVYAASHLPDGVPSRFSGSGSGTQYSLKINSLQSEDFGSYYCQHFWGTPRTFGGGTKLEIKR
notes: Mouse monoclonal antibody from hybridoma
hTIGIT-hFc [1]
  IC50: 0.335 µg/mL

B2: 14Tigit-1-1 mouse monoclonal antibody (antibody, V domains shown)
VH: DVQLQESGPGLVKPSQSLSLTCTVTGYSITSDYAWNWIRQFPGNKLEWMGYISYSGSTRSNPSLKSRISITRDTSKNQFFLQLNSMTAEDTATYYCGGWEVRNYYAMDYWGQGTSVTVSS
VL: DIVMTQSHKFMSTSVGDRVSITCKASQHVSTAVAWYQQKPGQSPKLLIYSASYRYTGVPDRFTGSGSGTDFTFTISSVQAEDLAVYYCQQHYNTPWTFGGGTKLEIKR
notes: as for B1
hTIGIT-hFc [2]
  IC50: 2.52 nM
hTIGIT-hFc [3]
  IC50 (read off the curve): ~1 nM
hTIGIT-hFc [4]
  IC50: 2600 nM
